Patent publication US20020165132A1 (published 2002)
Values belong to the binder of their own block, whether it stands above or below them. Positions of bridges follow the written chain, without caps; N, C: chain ends. Non-standard residues stand in square brackets, D forms with d. No end group written: not given here. AlaL = alanine half of a lanthionine (monosulfide) bridge

Experiments:
[1] = target: T1, µ-receptor (guinea pig ileum preparation) (guinea pig); assay: cell-based or functional assay
[2] = target: T1, µ-receptor (guinea pig ileum …); assay: cell-based or functional assay; remark: listed apart in the source
[3] = target: SSTR2 Receptor (cloned somatostatin receptor); assay: inhibition of radioligand binding to cloned SSTR2
SSTR2 Receptor (cloned somatostatin receptor), sequence (P30875 whole entry): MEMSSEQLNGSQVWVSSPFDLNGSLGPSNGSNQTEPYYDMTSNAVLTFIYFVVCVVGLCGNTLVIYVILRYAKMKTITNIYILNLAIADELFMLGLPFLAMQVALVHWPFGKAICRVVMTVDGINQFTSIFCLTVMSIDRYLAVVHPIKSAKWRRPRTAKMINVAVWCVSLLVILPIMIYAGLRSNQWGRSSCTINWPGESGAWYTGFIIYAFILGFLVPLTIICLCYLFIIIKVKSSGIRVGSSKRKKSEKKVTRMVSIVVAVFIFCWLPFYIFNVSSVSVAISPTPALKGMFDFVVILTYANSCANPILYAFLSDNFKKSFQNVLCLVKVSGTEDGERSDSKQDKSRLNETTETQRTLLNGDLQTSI

bioactivity at the GPI relative to [Leu^5]-enkephalin [1]: 400 fold | GPI IC50 [2]: 0.62 nM
B1: Tyr-c[D-AlaL-Gly-Phe-L-AlaL]-NH2 (peptide)
peptide: Y[dAlaL]GF[AlaL]-NH2
modifications: bridge 2-5; not fully specified (bridges); printed as Tyr-c[D-AlaL-Gly-Phe-L-AlaL]-NH2

GPI IC50 [2]: 0.45 nM
B2: Tyr-c[D-AlaL-Gly-Phe-L-AlaL]-OH (peptide)
peptide: Y[dAlaL]GF[AlaL]-OH
modifications: bridge 2-5; not fully specified (bridges); printed as Tyr-c[D-AlaL-Gly-Phe-L-AlaL]-OH

IC50 [3]: 0.3 nM
B3: c[AlaL3, AlaL14]-Somatostatin-14 (peptide)
chain: AG[AlaL]KNFFWKTFTS[AlaL]
modifications: bridge 3-14; not fully specified (bridges); printed as c[AlaL3, AlaL14]-Somatostatin-14
